Assay results taken from publication PMC7854685, “Histone Parylation factor 1 contributes to the inhibition of PARP1 by cancer drugs”.

Key:
PARP2 = PARP2 (UniProt Q9UGN5 1-583); assay: fluorescence polarization (release of labelled DNA on autoPARylation); PARPi present or absent; DNA released by 2 mM NAD+, retained without NAD+; 50 mM Tris-HCl pH 8.0, 50 mM NaCl, 1 mM MgCl2, 0.1 mM EDTA, 0.01% IGEPAL; temperature not stated; settings: protein: recombinant; label: fluorescein (5') in the FP DNA-release assay; blunt
PARP2, sequence (Q9UGN5 whole entry): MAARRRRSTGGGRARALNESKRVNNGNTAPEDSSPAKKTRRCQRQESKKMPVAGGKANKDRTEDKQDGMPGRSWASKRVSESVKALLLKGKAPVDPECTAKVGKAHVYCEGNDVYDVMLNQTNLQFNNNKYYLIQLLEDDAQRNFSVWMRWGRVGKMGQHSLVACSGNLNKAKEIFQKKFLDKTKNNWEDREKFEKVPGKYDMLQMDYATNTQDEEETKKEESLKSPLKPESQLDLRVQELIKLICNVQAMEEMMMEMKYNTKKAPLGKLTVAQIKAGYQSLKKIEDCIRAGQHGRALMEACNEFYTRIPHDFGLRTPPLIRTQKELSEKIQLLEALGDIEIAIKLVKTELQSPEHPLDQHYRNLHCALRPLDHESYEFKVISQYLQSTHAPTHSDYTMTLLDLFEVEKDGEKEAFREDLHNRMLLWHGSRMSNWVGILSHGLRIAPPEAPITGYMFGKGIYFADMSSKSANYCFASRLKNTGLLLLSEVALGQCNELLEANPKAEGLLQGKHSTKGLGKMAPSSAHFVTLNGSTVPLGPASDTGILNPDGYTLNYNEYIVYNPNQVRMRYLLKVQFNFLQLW

PARP1 = PARP1 (UniProt P09874 1-1014); assay: as above; settings: protein: recombinant; label: fluorescein (5') in the FP DNA-release assay; blunt
PARP1, sequence (P09874 whole entry): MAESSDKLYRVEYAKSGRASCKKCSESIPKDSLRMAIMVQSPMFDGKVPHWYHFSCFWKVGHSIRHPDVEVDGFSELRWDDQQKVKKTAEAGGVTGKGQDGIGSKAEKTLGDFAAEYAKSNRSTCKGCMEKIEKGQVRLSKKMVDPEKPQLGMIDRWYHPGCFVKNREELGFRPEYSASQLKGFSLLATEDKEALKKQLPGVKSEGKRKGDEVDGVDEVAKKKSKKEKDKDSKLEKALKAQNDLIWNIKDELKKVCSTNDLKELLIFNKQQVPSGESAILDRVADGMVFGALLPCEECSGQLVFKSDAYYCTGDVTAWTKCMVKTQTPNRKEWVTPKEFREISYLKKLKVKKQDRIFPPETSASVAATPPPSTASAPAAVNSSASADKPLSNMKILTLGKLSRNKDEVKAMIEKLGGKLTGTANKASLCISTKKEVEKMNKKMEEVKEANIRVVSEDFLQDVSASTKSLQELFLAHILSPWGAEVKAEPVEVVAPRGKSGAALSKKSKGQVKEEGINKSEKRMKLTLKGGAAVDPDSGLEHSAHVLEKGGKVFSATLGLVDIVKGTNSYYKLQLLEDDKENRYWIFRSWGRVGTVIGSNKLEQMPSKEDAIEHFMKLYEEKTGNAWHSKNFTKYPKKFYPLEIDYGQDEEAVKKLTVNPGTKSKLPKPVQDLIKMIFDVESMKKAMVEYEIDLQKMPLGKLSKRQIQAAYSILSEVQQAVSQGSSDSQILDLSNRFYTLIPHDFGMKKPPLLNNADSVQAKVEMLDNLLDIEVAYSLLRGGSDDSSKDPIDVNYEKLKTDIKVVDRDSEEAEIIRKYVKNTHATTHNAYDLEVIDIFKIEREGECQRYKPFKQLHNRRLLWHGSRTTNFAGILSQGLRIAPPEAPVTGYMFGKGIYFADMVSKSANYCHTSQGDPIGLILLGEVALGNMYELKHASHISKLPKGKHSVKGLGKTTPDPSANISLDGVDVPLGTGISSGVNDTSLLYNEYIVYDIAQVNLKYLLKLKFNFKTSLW

PARP2;HPF1 = PARP2;HPF1 (Homo sapiens?;Homo sapiens?, UniProt Q9UGN5;Q9NWY4 1-583;1-346, |); assay: fluorescence polarization (release of labelled DNA on autoPARylation); 2 uM HPF1, PARPi; DNA released by 2 mM NAD+; 50 mM Tris-HCl pH 8.0, 50 mM NaCl, 1 mM MgCl2, 0.1 mM EDTA, 0.01% IGEPAL; temperature not stated; settings: protein: recombinant;recombinant; (nickel column); copies: 1;1; label: fluorescein (5') in the FP DNA-release assay; blunt
PARP2;HPF1, sequence (Q9UGN5 whole entry, chain 1 of 2): as the sequence (Q9UGN5 whole entry) above
PARP2;HPF1, sequence (Q9NWY4 whole entry, chain 2 of 2): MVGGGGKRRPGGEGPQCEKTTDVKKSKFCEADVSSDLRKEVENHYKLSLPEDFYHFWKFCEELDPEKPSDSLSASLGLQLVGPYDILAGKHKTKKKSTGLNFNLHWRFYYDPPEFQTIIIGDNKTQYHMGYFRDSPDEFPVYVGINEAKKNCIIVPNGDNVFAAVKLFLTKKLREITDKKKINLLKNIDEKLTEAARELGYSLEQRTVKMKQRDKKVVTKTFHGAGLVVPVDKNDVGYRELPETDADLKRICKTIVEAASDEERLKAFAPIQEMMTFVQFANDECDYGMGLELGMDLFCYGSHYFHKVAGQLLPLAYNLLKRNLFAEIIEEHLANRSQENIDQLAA

PARP1;HPF1 = PARP1;HPF1 (Homo sapiens?;Homo sapiens?, UniProt P09874;Q9NWY4 1-1014;1-346, |); assay: as above; settings: protein: recombinant;recombinant; (nickel column); copies: 1;1; label: fluorescein (5') in the FP DNA-release assay; blunt
PARP1;HPF1, sequence (P09874 whole entry, chain 1 of 2): as the sequence (P09874 whole entry) above
PARP1;HPF1, sequence (Q9NWY4 whole entry, chain 2 of 2): as the sequence (Q9NWY4 whole entry, chain 2 of 2) above

Measured: binding result

B1: p18mer (dsDNA)
DNA 1: GGGTTGCGGCCGCTTGGG
DNA 2: CCCAAGCGGCCGCAACCC
modifications: 5'-phosphate
binds: all assays above
